These results are taken from PMC9482650, “Quantitative fragmentomics allow affinity mapping of interactomes” (Nature Communications, 2022).

Sequences and labels used below:
T1: MPDZ_11, O75970
T1 sequence (O75970 1720-1817, limits assumed, looked up): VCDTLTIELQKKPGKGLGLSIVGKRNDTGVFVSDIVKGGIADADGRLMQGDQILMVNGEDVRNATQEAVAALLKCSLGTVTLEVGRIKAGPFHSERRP

T2: PARD6G, Q9BYG4
T2 sequence (Q9BYG4 153-261, limits assumed, looked up): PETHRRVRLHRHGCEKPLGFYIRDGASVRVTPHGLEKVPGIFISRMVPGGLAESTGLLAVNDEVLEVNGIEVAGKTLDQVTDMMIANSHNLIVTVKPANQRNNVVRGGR

T3: PDZD2_1, O15018
T3 sequence (O15018 80-192, limits assumed, looked up): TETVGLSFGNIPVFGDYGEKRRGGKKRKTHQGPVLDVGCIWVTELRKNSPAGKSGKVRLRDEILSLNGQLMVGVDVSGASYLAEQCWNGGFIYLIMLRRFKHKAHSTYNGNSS

T4: SYNPO2L, Q9H987
T4 sequence (Q9H987 1-98, limits assumed, looked up): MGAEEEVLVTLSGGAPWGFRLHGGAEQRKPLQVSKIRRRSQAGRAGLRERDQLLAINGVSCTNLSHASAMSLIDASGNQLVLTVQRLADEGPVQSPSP

T5: SHANK2, Q9UPX8
T5 sequence (Q9UPX8 621-730, limits assumed, looked up): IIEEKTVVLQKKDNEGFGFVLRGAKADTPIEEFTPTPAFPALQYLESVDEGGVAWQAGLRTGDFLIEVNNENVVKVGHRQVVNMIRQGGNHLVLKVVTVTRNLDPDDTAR

T6: PTPN13_5, Q12923
T6 sequence (Q12923 1877-1975, limits assumed, looked up): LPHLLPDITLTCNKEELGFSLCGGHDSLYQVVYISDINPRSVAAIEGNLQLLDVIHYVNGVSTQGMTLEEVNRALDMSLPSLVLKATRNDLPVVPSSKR

T7: TJP3_2, O95049
T7 sequence (O95049 190-282, limits assumed, looked up): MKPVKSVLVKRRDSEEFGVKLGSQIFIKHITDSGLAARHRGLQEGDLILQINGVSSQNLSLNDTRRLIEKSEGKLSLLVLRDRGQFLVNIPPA

T8: GIPC1, O14908
T8 sequence (O14908 128-223, limits assumed, looked up): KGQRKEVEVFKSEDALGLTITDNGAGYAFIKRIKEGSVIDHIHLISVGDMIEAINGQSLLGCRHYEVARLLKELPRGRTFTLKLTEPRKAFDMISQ

T9: MPDZ_3, O75970
T9 sequence (O75970 372-473, limits assumed, looked up): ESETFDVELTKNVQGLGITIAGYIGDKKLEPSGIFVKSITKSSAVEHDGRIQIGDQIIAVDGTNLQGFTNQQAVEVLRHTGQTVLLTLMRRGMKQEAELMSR

T10: PDZD7_2, Q9H5P4
T10 sequence (Q9H5P4 205-303, limits assumed, looked up): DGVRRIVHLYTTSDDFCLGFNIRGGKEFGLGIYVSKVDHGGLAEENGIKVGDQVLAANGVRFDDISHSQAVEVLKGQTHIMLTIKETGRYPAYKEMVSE

T11: MPP1, Q00013
T11 sequence (Q00013 66-162, limits assumed, looked up): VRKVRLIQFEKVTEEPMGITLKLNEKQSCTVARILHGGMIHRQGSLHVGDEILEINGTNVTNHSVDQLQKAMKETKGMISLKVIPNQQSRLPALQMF

T12: USH1C_3, Q9Y6N9
T12 sequence (Q9Y6N9 447-547, limits assumed, looked up): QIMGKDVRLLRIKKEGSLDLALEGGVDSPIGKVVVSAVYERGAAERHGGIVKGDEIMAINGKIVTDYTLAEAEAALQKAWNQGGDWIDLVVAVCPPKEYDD

T13: NHERF1_1, O14745
T13 sequence (O14745 9-104, limits assumed, looked up): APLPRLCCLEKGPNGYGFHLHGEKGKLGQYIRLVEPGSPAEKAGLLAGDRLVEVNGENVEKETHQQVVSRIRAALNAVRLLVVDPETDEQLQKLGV

T14: PDZRN3_2, Q9UPQ7
T14 sequence (Q9UPQ7 414-513, limits assumed, looked up): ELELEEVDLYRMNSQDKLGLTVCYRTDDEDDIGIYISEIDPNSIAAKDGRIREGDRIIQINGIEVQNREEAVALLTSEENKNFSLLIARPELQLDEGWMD

B1: KCNA5, P22460 (peptide)
chain: CLDTSRETDL
B2: PTEN, P60484 (peptide)
chain: DEDQHTQITKV

Sequence of DLG5_2, Q8TDM6 (Q8TDM6 714-800): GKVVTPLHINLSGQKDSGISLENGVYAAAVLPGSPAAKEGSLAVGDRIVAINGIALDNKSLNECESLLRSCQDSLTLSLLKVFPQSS
Sequence of DVL2, O14641 (O14641 260-359): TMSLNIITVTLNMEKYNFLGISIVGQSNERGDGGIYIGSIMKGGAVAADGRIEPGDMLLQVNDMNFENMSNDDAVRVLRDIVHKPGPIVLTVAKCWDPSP
Sequence of CNKSR3, Q6P9H4 (Q6P9H4 203-303): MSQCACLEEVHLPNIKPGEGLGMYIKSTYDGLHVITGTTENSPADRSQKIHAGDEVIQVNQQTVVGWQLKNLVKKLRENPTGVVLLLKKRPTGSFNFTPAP

The target in the first assay is NHERF2_1, Q15599. In words: holdup assay. Further details: key: below the threshold = too weak to quantify, mostly under pKd 3.1 to 4. To be noted: plain residues with an end cap or a label only (N-terminal biotin on a linker: ttds).
Sequence of NHERF2_1, Q15599 (Q15599 9-91): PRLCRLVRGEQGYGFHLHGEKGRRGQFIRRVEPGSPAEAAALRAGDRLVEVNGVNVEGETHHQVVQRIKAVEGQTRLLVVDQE
Turning to B1, the pKd entry is listed as “below the threshold”.
Same read-out and setting: then B2, with “below the threshold”.

Another assay concerns the target T1, MPDZ_11, O75970. In words: holdup assay. Also noted: key: below the threshold = too weak to quantify, mostly under pKd 3.1 to 4. To be noted: plain residues with an end cap or a label only (N-terminal biotin on a linker: ttds).
Turning to B1, the pKd result is recorded as “below the threshold”.
Still for that read-out and setting: then B2, with “below the threshold”.

For a further assay, the target named is MAGI1_4, Q96QZ7. In words: holdup assay. Further details: key: below the threshold = too weak to quantify, mostly under pKd 3.1 to 4. To be noted: plain residues with an end cap or a label only (N-terminal biotin on a linker: ttds).
Sequence of MAGI1_4, Q96QZ7 (Q96QZ7 other isoform, or with tags, fused parts or gaps): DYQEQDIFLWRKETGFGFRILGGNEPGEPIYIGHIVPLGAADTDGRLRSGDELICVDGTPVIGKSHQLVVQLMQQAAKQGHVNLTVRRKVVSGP
Turning to B1, the pKd entry was “below the threshold”.

The next assay has as its target CNKSR3, Q6P9H4. In words: holdup assay. Also noted: key: below the threshold = too weak to quantify, mostly under pKd 3.1 to 4. To be noted: plain residues with an end cap or a label only (N-terminal biotin on a linker: ttds).
On to B1, for which the pKd result was “below the threshold”.
As for B2, the pKd result is “below the threshold”.

The next assay deals with IL16_2, Q14005. In words: holdup assay. Also noted: key: below the threshold = too weak to quantify, mostly under pKd 3.1 to 4. To be noted: plain residues with an end cap or a label only (N-terminal biotin on a linker: ttds).
Sequence of IL16_2, Q14005 (Q14005 350-450): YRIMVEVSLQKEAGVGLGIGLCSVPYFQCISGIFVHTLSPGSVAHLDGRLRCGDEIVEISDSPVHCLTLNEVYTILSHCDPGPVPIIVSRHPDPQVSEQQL
As for B1, the pKd entry was “below the threshold”.
Take B2: the pKd entry is recorded as “below the threshold”.

In the next assay the target is CARD14, Q9BXL6. Description: holdup assay. Further details: key: below the threshold = too weak to quantify, mostly under pKd 3.1 to 4. To be noted: plain residues with an end cap or a label only (N-terminal biotin on a linker: ttds).
Sequence of CARD14, Q9BXL6 (Q9BXL6 558-663): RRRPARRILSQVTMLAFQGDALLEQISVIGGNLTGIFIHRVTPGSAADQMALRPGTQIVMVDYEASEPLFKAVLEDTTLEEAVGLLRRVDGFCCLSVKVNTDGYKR
Turning to B1, the negative-log Kd (pKd) entry is reported as “below the threshold”.
Still for that read-out and setting: in the case of B2 it was “below the threshold”.

A further assay has as its target T2, PARD6G, Q9BYG4. Description: holdup assay. Also noted: key: below the threshold = too weak to quantify, mostly under pKd 3.1 to 4. Conditions: plain residues with an end cap or a label only (N-terminal biotin on a linker: ttds).
Turning to B1, the pKd result is on record as “below the threshold”.
Still for that read-out and setting: then B2, with “below the threshold”.

The target of the next assay is T3, PDZD2_1, O15018. In words: holdup assay. Also noted: key: below the threshold = too weak to quantify, mostly under pKd 3.1 to 4. Conditions: plain residues with an end cap or a label only (N-terminal biotin on a linker: ttds).
In the case of B1, the pKd entry is on record as “below the threshold”.
As to B2, the pKd result is recorded as “below the threshold”.

Another assay deals with T4, SYNPO2L, Q9H987. In words: holdup assay. Conditions: plain residues with an end cap or a label only (N-terminal biotin on a linker: ttds). Further details: key: below the threshold = too weak to quantify, mostly under pKd 3.1 to 4.
Take B1: the negative logarithm of the Kd (pKd) result is given as “below the threshold”.
B2: the pKd entry is given as “below the threshold”.

The next assay concerns the target T5, SHANK2, Q9UPX8. Description: holdup assay. To be noted: plain residues with an end cap or a label only (N-terminal biotin on a linker: ttds). Further details: key: below the threshold = too weak to quantify, mostly under pKd 3.1 to 4.
As to B1, the negative-log Kd (pKd) entry was “below the threshold”.
The same measure, in the same setting: then B2, with “below the threshold”.

A further assay concerns the target DVL2, O14641. In words: holdup assay. Also noted: key: below the threshold = too weak to quantify, mostly under pKd 3.1 to 4. To be noted: plain residues with an end cap or a label only (N-terminal biotin on a linker: ttds).
As for B1, the pKd result was “below the threshold”.
For B2, the pKd entry is given as “below the threshold”.

In another assay the target is T6, PTPN13_5, Q12923. Description: holdup assay. Further details: key: below the threshold = too weak to quantify, mostly under pKd 3.1 to 4. Conditions: plain residues with an end cap or a label only (N-terminal biotin on a linker: ttds).
In the case of B1, the pKd entry is “below the threshold”.
The same measure, in the same setting: then B2, with “below the threshold”.

The target of the next assay is T7, TJP3_2, O95049. In words: holdup assay. Further details: key: below the threshold = too weak to quantify, mostly under pKd 3.1 to 4. Conditions: plain residues with an end cap or a label only (N-terminal biotin on a linker: ttds).
Regarding B1, the pKd entry is reported as “below the threshold”.
On the same count and under the same terms, then B2, with “below the threshold”.

The target of a further assay is T8, GIPC1, O14908. Description: holdup assay. Conditions: plain residues with an end cap or a label only (N-terminal biotin on a linker: ttds). Also noted: key: below the threshold = too weak to quantify, mostly under pKd 3.1 to 4.
With B1, the pKd result is reported as “below the threshold”.
On the same count and under the same terms, then B2, with “below the threshold”.

The target in a further assay is T9, MPDZ_3, O75970. Description: holdup assay. Further details: key: below the threshold = too weak to quantify, mostly under pKd 3.1 to 4. To be noted: plain residues with an end cap or a label only (N-terminal biotin on a linker: ttds).
For B1, the pKd entry is “below the threshold”.
Still for that read-out and setting: then B2, with “below the threshold”.

For a further assay, the target named is T10, PDZD7_2, Q9H5P4. In words: holdup assay. Further details: key: below the threshold = too weak to quantify, mostly under pKd 3.1 to 4. Conditions: plain residues with an end cap or a label only (N-terminal biotin on a linker: ttds).
As to B1, the pKd entry is “below the threshold”.
Still for that read-out and setting: in the case of B2 it was “below the threshold”.

The target in a further assay is SCRIB_4, Q14160. Description: holdup assay. Further details: key: below the threshold = too weak to quantify, mostly under pKd 3.1 to 4. To be noted: plain residues with an end cap or a label only (N-terminal biotin on a linker: ttds).
Sequence of SCRIB_4, Q14160 (Q14160 1095-1204): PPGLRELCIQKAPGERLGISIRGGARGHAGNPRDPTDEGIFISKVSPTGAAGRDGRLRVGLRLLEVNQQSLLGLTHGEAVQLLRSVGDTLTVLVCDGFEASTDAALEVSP
For B1, the pKd result was “below the threshold”.
The same measure, in the same setting: in the case of B2 it was “below the threshold”.

In the next assay the target is T11, MPP1, Q00013. In words: holdup assay. Further details: key: below the threshold = too weak to quantify, mostly under pKd 3.1 to 4. To be noted: plain residues with an end cap or a label only (N-terminal biotin on a linker: ttds).
On to B1, for which the pKd result is given as “below the threshold”.
Still for that read-out and setting: in the case of B2 it was “below the threshold”.

Another assay concerns the target T12, USH1C_3, Q9Y6N9. In words: holdup assay. Also noted: key: below the threshold = too weak to quantify, mostly under pKd 3.1 to 4. Conditions: plain residues with an end cap or a label only (N-terminal biotin on a linker: ttds).
On to B1, for which the pKd entry is “below the threshold”.

A further assay addresses DLG5_2, Q8TDM6. In words: holdup assay. Further details: key: below the threshold = too weak to quantify, mostly under pKd 3.1 to 4. To be noted: plain residues with an end cap or a label only (N-terminal biotin on a linker: ttds).
As for B1, the pKd result was “below the threshold”.
In the case of B2, the pKd result was “below the threshold”.

For the next assay, the target named is T13, NHERF1_1, O14745. In words: holdup assay. Also noted: key: below the threshold = too weak to quantify, mostly under pKd 3.1 to 4. To be noted: plain residues with an end cap or a label only (N-terminal biotin on a linker: ttds).
With B1, the pKd result is given as “below the threshold”.
Still for that read-out and setting: then B2, with 4.46.

Another assay addresses T14, PDZRN3_2, Q9UPQ7. In words: holdup assay. Further details: key: below the threshold = too weak to quantify, mostly under pKd 3.1 to 4. To be noted: plain residues with an end cap or a label only (N-terminal biotin on a linker: ttds).
In the case of B1, the negative-log Kd (pKd) result is listed as “below the threshold”.
